Experimental data as given in patent publication US7803572B2, “Protease detection assay” (Atlas Genetics, Ltd., priority 2003, dated 2010).

Columns and labels:
trypsin = molecular target: T1, trypsin (Sus scrofa, UniProt P00761); assay: Amperometric analysis of trypsin digestion; assay type: biochemical, porcine; details: amperometric time course trace
T1 construct: purchased Sigma; host or cells: porcine pancreas
Procedure: Four digestion reactions were carried out with real-time amperometric analysis. […] Tryspin was resuspended in HCl (1 mM, pH 3.0), papain and carboxypeptidase were resuspended in NaCl (100 mM). […] The amperometry conditions were as set out in Tables 2 and 3.
In FIG. 17, there is shown the amperometric time course trace for the trypsin digestion of Fc-BSA. […] As the movement of the species present in the solution reaches a steady state, the current response appears to decay.
In FIG. 18, there is shown the amperometric time course trace for the papain digestion of FcU-BSA. […] As the movement of the species present in the solution reaches a steady state, the current response appears to decay. […] The amperometric time course trace for the trypsin digestion of FcU-BSA is not illustrated in the drawings but was analogous.

porcine pancreas trypsin = molecular target: T2, porcine pancreas trypsin (Sus scrofa, UniProt P00761); assay: Effect of a protease inhibitor on electrochemical marker signal (trypsin digestion of Fc-BSA); assay type: biochemical; details: reaction (i): no inhibitor added
T2 construct: purchased Sigma; host or cells: porcine pancreas
Procedure: (§1) Protease assays were performed as follows unless stated otherwise. […] Samples were incubated at 37° C. for 1 hour.
Five digestions of Fc-BSA with trypsin were carried out using the protocol described above. In addition, soybean trypsin inhibitor was added to reaction mixtures […]. Solutions of the soybean trypsin inhibitor were prepared by resuspending inhibitor as supplied in deionised water to a concentration of 10 mg/ml and 1 mg/ml as appropriate. No inhibitor was added to reaction (i); 0.5 μl of 1 mg/ml inhibitor solution was added to reaction (ii); […] of 10 mg/ml inhibitor was added to reaction (iii); 5 μl of 10 mg/ml inhibitor solution was added to reaction (iv) and 5 μl of 10 mg/ml inhibitor solution was added to a no-trypsin control reaction. The differential pulse voltammogram results are shown in FIG. 16 with baseline correction.

[1] = molecular target: T3, type II bovine pancreas α-chymotrypsin (Bos taurus, UniProt P00766); assay: Digestion of Fc-BSA with α-chymotrypsin, differential pulse voltammetry; assay type: biochemical
T3 construct: purchased Sigma; host or cells: bovine pancreas
Procedure: as §1
A digestion of Fc-BSA with α-chymotrypsin was carried out as described above. […] The positive reaction has a peak position of 438 mV and a peak height of 4.48×10^−7 A; the no α-chymotrypsin control reaction has a peak position of 432 mV and a peak height of 2.55×10^−8 A.

[2] = no α-chymotrypsin control reaction
[3] = positive reaction, 37° C. for 1 hour

T2 sequence (P00761 9-231): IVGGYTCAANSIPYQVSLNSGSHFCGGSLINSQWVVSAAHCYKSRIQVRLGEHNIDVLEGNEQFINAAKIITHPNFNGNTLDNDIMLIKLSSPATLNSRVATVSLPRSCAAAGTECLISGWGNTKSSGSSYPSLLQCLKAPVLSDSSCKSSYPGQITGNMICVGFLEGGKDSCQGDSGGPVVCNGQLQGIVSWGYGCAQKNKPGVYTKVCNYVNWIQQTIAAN
T1 sequence (P00761 9-231): as above

Which “faradaic current response over time after addition of the enzyme” value (trypsin) does the source give for “Fc-BSA: Bovine serum albumin labelled with ferrocene methanoyl groups via N-hydroxysuccinimide ester; estimated 10 to 20 ferrocenes per BSA” here?
Its value is “increase in current”.

What about the peak height (porcine pancreas trypsin) of the same substance?
Its peak height is 2.56×10^−7 A.

What about the peak position (porcine pancreas trypsin) of the same substance?
Its peak position is 439 mV.

And the peak height [1, 2]?
Its peak height is 2.55×10^−8 A.

What about the peak position [1, 2] of the same substance?
The peak position was 432 mV.

What about the peak height [1, 3] of the same substance?
The peak height was 4.48×10^−7 A.

What about the peak position [1, 3] of the same substance?
The peak position was 438 mV.
